The record followed here is patent publication US20260250371A1 (ULTRAGENYX PHARMACEUTICAL, published 2026).

The term Kd denotes the constant that tells how readily two partners part at equilibrium. As a reminder, the koff is a measure of how fast the partners let go of each other. As a reminder, the kon is the rate constant with which the complex forms.

For test [1], the target named is T1, recombinant human FGF23 (R179Q) (human, UniProt Q9GZV9 25-251).
T1 construct: also called rhFGF23(R179Q); hFGF23(R179Q)
T1 sequence (looked up): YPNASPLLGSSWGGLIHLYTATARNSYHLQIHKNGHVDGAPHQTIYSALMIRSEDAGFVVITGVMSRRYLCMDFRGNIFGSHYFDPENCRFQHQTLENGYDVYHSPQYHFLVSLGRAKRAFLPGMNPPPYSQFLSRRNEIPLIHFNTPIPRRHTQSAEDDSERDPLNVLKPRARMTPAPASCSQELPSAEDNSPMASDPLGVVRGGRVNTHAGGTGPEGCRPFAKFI
As to the kind of experiment: SPR, antibody captured on hIgG chip, rhFGF23(R179Q) analyte. (In SPR one partner is held on a chip, and binding of the other changes the refractive index at the surface.)

The target in test [2] is T1, recombinant human FGF23 (R179Q). Described as above. This is another data set of the same source.
The target in test [3] is T2, cynomolgus monkey (Macaca fascicularis) FGF23 (R179Q) (cynomolgus monkey (Macaca fascicularis), UniProt Q9GZV9 25-251 (human entry), limits assumed).
T2 construct: also called cynoFGF23; cynoFGF23(R179Q)
T2 chain: T1 sequence (looked up) with D85N, Q92R, Q94W, Y108H, I149R, M195V, G219A, A224P
As to the kind of experiment: SPR, antibody captured on hIgG chip, cynoFGF23(R179Q) analyte, single cycle kinetics. The protocol: Binding kinetics of 13 antibody variants shown in Table 19 were characterized against cynomolgus monkey (Macaca fascicularis) FGF23 (R179Q) (i.e., “cynoFGF23”) (SEQ ID NO: 372). Antibody variants were expressed at small scale (3 ml) and screened by SPR analysis at a single concentration (100 nM). Experimental setup of SPR analysis for CRC: SPR device—8K+; chip preparation—CM5 hIgG chip: channels—1-8; immobilization concentration—1.5 ug/ml; immobilization method—capture; flow rate—5 μl/min; contact time—60 s; running buffer—1×HBS-EP+pH 7.4; temperature—20° C.: flow rate—50 μl/min; association time—120 s; dissociation time—1800 s; antigen—cynoFGF23(R179Q): top concentration—0.1 μM, 9-pt 3-fold Single Cycle Kinetics.

In test [4] the target is T1, recombinant human FGF23 (R179Q). As to the kind of experiment: SPR, antibody captured on hIgG chip, human FGF23 analyte.

Substitutions are numbered along the chain they refer to. Numbers in names are those of the source. Where “and” joins values, the source holds several entries; their conditions need not be identical. Identical values can stand only once. Like-named read-outs stand apart in the source and are kept apart here.

B1: Burosumab (antibody, human IgG1, kappa, V domains shown)
VH: QVQLVQSGAEVKKPGASVKVSCKASGYTFTNHYMHWVRQAPGQGLEWMGIINPISGSTSNAQKFQGRVTMTRDTSTSTVYMELSSLRSEDTAVYYCARDIVDAFDFWGQGTMVTVSS
VL: AIQLTQSPSSLSASVGDRVTITCRASQGISSALVWYQQKPGKAPKLLIYDASSLESGVPSRFSGSGSGTDFTLTISSLQPEDFATYYCQQFNDYFTFGPGTKVDIKR
notes: Recombinant human IgG1 kappa; also called burosumab-twza; parental burosumab
As to B1, in test [1], the Kd amounted to 20.8 pM, the “Ratio (variant antibody KD/burosumab KD)” value is 1, the “SA (surface activity)” value is 88.8% and the koff stood at 0.000157 s⁻¹. Moreover, the on-rate constant (kon) in test [1] is 7.22e+06 M⁻¹ s⁻¹.

B2: UGX192 (antibody, human IgG1, kappa, V domains shown)
VH: B1 VH with N52F, V101I
VL: B1 VL
notes: also called HC:N52F, HC:V101I
B2: in test [2], the equilibrium dissociation constant (Kd) is 20600 pM, the “Ratio (variant antibody KD/burosumab KD)” value was determined as 0, the “SA (surface activity)” value worked out at 82.3% and the off-rate constant (koff) came out at 0.0236 s⁻¹. For the same molecule, the kon in test [2] came out at 1.15e+06 M⁻¹ s⁻¹.

B3: UGX157 (antibody, human IgG1, kappa, V domains shown)
VH: B1 VH with I54Y
VL: B1 VL
notes: also called HC:I54Y; I54Y
Consider B3, for which, in test [1], the Kd was 7.58 pM, the “Ratio (variant antibody KD/burosumab KD)” value turned out to be 3, the “SA (surface activity)” value amounted to 89.1% and the dissociation rate constant (koff) worked out at 0.000113 s⁻¹. Further, in test [1], the kon was determined as 1.49e+07 M⁻¹ s⁻¹. Besides, in test [2], the Kd was 7.58 pM, the “Ratio (variant antibody KD/burosumab KD)” value was determined as 3, the “SA (surface activity)” value worked out at 89.1% and the koff was found to be 0.000113 s⁻¹. In test [2], the kon came out at 1.49e+07 M⁻¹ s⁻¹. For the same molecule, in test [3], the “KD ratio (variant antibody KD/burosumab KD)” value (“KD ratio” below) was 4 and the Kd was 5.73 pM. In test [4], the “KD ratio” value was 3 and the Kd is 7.58 pM.

B4: UGX126 (antibody, human IgG1, kappa, V domains shown)
VH: B1 VH
VL: B1 VL with S52D
notes: also called LC:S52D; S52D
On to B4, for which, in test [1], the Kd was 12.4 pM, the “Ratio (variant antibody KD/burosumab KD)” value worked out at 2, the “SA (surface activity)” value was 86.5% and the koff came out at 0.00013 s⁻¹. Also, the association rate constant (kon) in test [1] was 1.05e+07 M⁻¹ s⁻¹. In addition, in test [2], the equilibrium dissociation constant (Kd) was 12.4 pM, the “Ratio (variant antibody KD/burosumab KD)” value was 2, the “SA (surface activity)” value worked out at 86.5% and the koff amounted to 0.00013 s⁻¹. In test [2], the on-rate (kon) came out at 1.05e+07 M⁻¹ s⁻¹. In test [3], the “KD ratio” value is 2 and the Kd came to 10.3 pM. In test [4], the “KD ratio” value amounted to 2 and the dissociation constant (Kd) amounted to 12.4 pM.

B5: UGX164 (antibody, human IgG1, kappa, V domains shown)
VH: B1 VH with S59T
VL: B1 VL
notes: also called HC:S59T
Take B5: in test [2], the equilibrium dissociation constant (Kd) was 33.6 pM, the “Ratio (variant antibody KD/burosumab KD)” value was 1, the “SA (surface activity)” value was found to be 91.9% and the dissociation rate constant (koff) came out at 0.00019 s⁻¹. Also, the kon in test [2] amounted to 5.64e+06 M⁻¹ s⁻¹.

B6: UGX165 (antibody, human IgG1, kappa, V domains shown)
VH: B1 VH with S59V
VL: B1 VL
notes: also called HC:S59V
For the molecule B6, in test [2], the dissociation constant (Kd) was 36.3 pM and 44.8 pM; the off-rate (koff) was 0.000175 s⁻¹ and 0.00022 s⁻¹; the kon was 4.82e+06 M⁻¹ s⁻¹ and 4.92e+06 M⁻¹ s⁻¹.

B7: UGX139 (antibody, human IgG1, kappa, V domains shown)
VH: B1 VH
VL: B1 VL with N92Y
notes: also called UGX038; LC:N92Y
As for B7, in test [2], the Kd came out at 16.4 pM, the “Ratio (variant antibody KD/burosumab KD)” value came to 1, the “SA (surface activity)” value turned out to be 86.2% and the koff amounted to 0.000104 s⁻¹. Moreover, in test [2], the on-rate (kon) came to 6.32e+06 M⁻¹ s⁻¹. For the same molecule, in test [3], the “KD ratio” value was determined as 1 and the Kd came out at 16.2 pM. In test [4], the “KD ratio” value amounted to 1 and the Kd was determined as 16.4 pM.

B8: UGX162 (antibody, human IgG1, kappa, V domains shown)
VH: B1 VH with S59L
VL: B1 VL
notes: also called HC:S59L
As for B8, in test [2], the Kd worked out at 98.6 pM, the “Ratio (variant antibody KD/burosumab KD)” value was 0, the “SA (surface activity)” value worked out at 88.4% and the koff turned out to be 0.000472 s⁻¹. Also, the kon in test [2] was 4.79e+06 M⁻¹ s⁻¹.

B9: UGX156 (antibody, human IgG1, kappa, V domains shown)
VH: B1 VH with I54F
VL: B1 VL
notes: also called HC:I54F; I54F
Consider B9, for which, in test [1], the Kd is 10.5 pM, the “Ratio (variant antibody KD/burosumab KD)” value worked out at 2, the “SA (surface activity)” value stood at 106% and the off-rate constant (koff) was 6.25e-05 s⁻¹. For the same molecule, in test [1], the kon stood at 5.94e+06 M⁻¹ s⁻¹. Also, in test [2], the Kd is 9.24 pM and 10.5 pM; the “Ratio (variant antibody KD/burosumab KD)” value was 2; the off-rate (koff) is 9.77e-05 s⁻¹ and 6.25e-05 s⁻¹; the kon is 1.06e+07 M⁻¹ s⁻¹ and 5.94e+06 M⁻¹ s⁻¹. For the same molecule, in test [3], the “KD ratio” value turned out to be 6 and binding was characterised by a dissociation constant (Kd) of 4.15 pM. Besides, in test [4], the “KD ratio” value came to 2 and the equilibrium dissociation constant (Kd) came to 10.5 pM.

B10: UGX178 (antibody, human IgG1, kappa, V domains shown)
VH: B1 VH with N31F, S59F
VL: B1 VL
notes: also called HC:N31F, HC:S59F
For the molecule B10, in test [2], the dissociation constant (Kd) came to 21.2 pM, the “Ratio (variant antibody KD/burosumab KD)” value was determined as 1, the “SA (surface activity)” value was 85.6% and the koff was determined as 0.000134 s⁻¹. Besides, in test [2], the kon came to 6.33e+06 M⁻¹ s⁻¹.

B11: UGX166 (antibody, human IgG1, kappa, V domains shown)
VH: B1 VH with S59Y
VL: B1 VL
notes: also called UGX068; HC:S59Y
For B11, in test [2], the Kd amounted to 22.4 pM, the “Ratio (variant antibody KD/burosumab KD)” value stood at 1, the “SA (surface activity)” value came out at 93.1% and the koff was 0.000196 s⁻¹. Also, the kon in test [2] amounted to 8.77e+06 M⁻¹ s⁻¹.

B12: UGX190 (antibody, human IgG1, kappa, V domains shown)
VH: B1 VH with S59T, V101L
VL: B1 VL
notes: also called HC:S59T, HC:V101L
B12: in test [2], the Kd is 3080 pM, the “Ratio (variant antibody KD/burosumab KD)” value is 0, the “SA (surface activity)” value is 92.7% and the koff amounted to 0.0103 s⁻¹. Also, the kon in test [2] turned out to be 3.35e+06 M⁻¹ s⁻¹.

B13: UGX188 (antibody, human IgG1, kappa, V domains shown)
VH: B1 VH with S57E, S59D
VL: B1 VL
notes: also called HC:S57E, HC:S59D
Consider B13, for which, in test [2], the dissociation constant (Kd) amounted to 18.3 pM, the “Ratio (variant antibody KD/burosumab KD)” value worked out at 1, the “SA (surface activity)” value turned out to be 95.8% and the koff stood at 0.000253 s⁻¹. Further, in test [2], the kon amounted to 1.39e+07 M⁻¹ s⁻¹.

B14: UGX145 (antibody, human IgG1, kappa, V domains shown)
VH: B1 VH
VL: B1 VL with Y94E
notes: also called UGX042; LC:Y94E
For the molecule B14, in test [1], the dissociation constant (Kd) was found to be 13.3 pM, the “Ratio (variant antibody KD/burosumab KD)” value is 2, the “SA (surface activity)” value amounted to 87.4% and the koff is 8.52e-05 s⁻¹. Besides, in test [1], the kon amounted to 6.42e+06 M⁻¹ s⁻¹. In addition, in test [2], the Kd is 13.8 pM and 13.3 pM; the koff was 8.52e-05 s⁻¹ and 9.74e-05 s⁻¹; the kon was 6.42e+06 M⁻¹ s⁻¹ and 7.07e+06 M⁻¹ s⁻¹. Further, in test [3], the “KD ratio” value stood at 2 and the Kd was determined as 12.9 pM. In test [4], the “KD ratio” value came to 2 and the Kd is 13.3 pM.

B15: UGX175 (antibody, human IgG1, kappa, V domains shown)
VH: B1 VH with A103S
VL: B1 VL
notes: also called HC:A103S; A103S
As for B15, in test [1], the Kd was found to be 7.72 pM, the “Ratio (variant antibody KD/burosumab KD)” value stood at 3, the “SA (surface activity)” value came out at 86.8% and the off-rate constant (koff) amounted to 9.61e-05 s⁻¹. Besides, in test [1], the on-rate constant (kon) was found to be 1.24e+07 M⁻¹ s⁻¹. Further, in test [2], the Kd was found to be 7.72 pM, the “Ratio (variant antibody KD/burosumab KD)” value turned out to be 3, the “SA (surface activity)” value is 86.8% and the koff was 9.61e-05 s⁻¹. Moreover, in test [2], the association rate constant (kon) stood at 1.24e+07 M⁻¹ s⁻¹. In test [3], the “KD ratio” value was 4 and binding was put at a Kd of 6.17 pM. For the same molecule, in test [4], the “KD ratio” value was 3 and the Kd is 7.72 pM.

B16: UGX161 (antibody, human IgG1, kappa, V domains shown)
VH: B1 VH with S59I
VL: B1 VL
notes: also called HC:S59I
As for B16, in test [2], the dissociation constant Kd was 61 pM, the “Ratio (variant antibody KD/burosumab KD)” value turned out to be 0, the “SA (surface activity)” value turned out to be 84.2% and the koff is 0.000267 s⁻¹. Further, in test [2], the on-rate (kon) came to 4.38e+06 M⁻¹ s⁻¹.
